# PMC12154184, “An Anti-BCMA Affibody Affinity Protein for Therapeutic and Diagnostic Use in Multiple Myeloma” (International Journal of Molecular Sciences, 2025)
# T1: human APRIL (A Proliferation Inducing Ligand) (human, UniProt O75888 105-250)
# T1 construct: No catalogue number is printed; also called hAPRIL; source: bought: R&D Systems
# T1 sequence (looked up): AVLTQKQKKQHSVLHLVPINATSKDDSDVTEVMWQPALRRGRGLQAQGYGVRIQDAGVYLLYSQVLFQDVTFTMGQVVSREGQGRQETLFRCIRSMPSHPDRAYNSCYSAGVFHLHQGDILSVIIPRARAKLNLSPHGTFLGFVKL
# Target: T1, human APRIL (A Proliferation Inducing …)
# Test: SPR; blocking assay, Biacore T200; human BCMA-rFc immobilised; 1 µM 1-E6 (affibody-His6) or running buffer injected first, then 100 nM APRIL or 25 nM belantamab; PBS-T
# Settings: both partners purified
binder,measurement,value
"AGQCSQNEYFDSLLHACIPCQLRCSSNTPPLTCQRYCNASVTNSVK (Fc fusion, UniProt Q02223 5-50, looked up, human B Cell Maturation Antigen (BCMA, TNFRSF17, CD269), residues 5-50 containing the ECD as told in the results; the methods give residues 1-54 of UniProt Q02223 for the biotinylated selection antigen (cat. no. 10620-H03H-B); no range is printed for 10620-H15H itself; The discussion speaks of 45 residues; also called human BCMA-rFc; immobilised BCMA; source: bought: Sino Biological (cat. no. …)) [recombinant human BCMA extracellular domain fused to the Fc portion of rabbit IgG (BCMA-rFc)]",binding result,binds
